According to patent publication US20100056445A1, “ADIPONECTIN FOR THE TREATMENT AND DIAGNOSIS OF ALBUMINURIA” (THOMAS JEFFERSON UNIVERSITY, priority 2006, published 2010):
“Also recorded” adds a separate entry of the source.

Tests used:
Assay type in all cases: cell-based, mouse
podocyte monolayer = test: Albumin permeability across differentiated podocyte monolayer (Transwell); conditions: adiponectin (globular or full length) 3 μg/ml, serum free, vs. control
Method: Podocyte cell culture: Conditionally immortalized mouse podocytes were kindly provided by Dr. Peter Mundel (Albert Einstein College of Medicine, Bronx, N.Y.) and were cultured as previously described (27). The cells harbor a temperature-sensitive variant of the SV40 large T antigen (tsA58) that is inducible by γ-interferon and stable at 33° C. but rapidly degraded at 37° C. (27). At 33° C., the large T antigen allows for cellular proliferation. The proliferating cells are maintained in collagen I—coated flasks in RPMI-1640 media supplemented with 10% FBS and 10 units/ml mouse recombinant γ-interferon. When the cells have reached confluence, they are passaged and allowed to differentiate at 37° C. for 8-10 days without γ-interferon in Dulbecco's modified Eagle's medium containing 5.5 mmol/l glucose and 5% FCS. For the permeability assay a modification of a previously published protocol (28) was adopted. Differentiated podocytes (0.2×10^6 podocytes/well) plated on collagen coated 24 well Transwell plates (Corning) were serum-starved ovenight when confluent. Cells were then modulated with globular adiponectin (PepROTech Inc.) with or without 1 mM adenosine 9-p-D-arabinofuranoside (ARA-A) (Sigma, St. Louis, Mo.), for 24 h. Cells were then washed twice with PBS supplemented with 1 mM MgCl2 and 1 mM CaCl2. The upper compartment was refilled with 0.25 ml RPMI 1640 alone and the lower compartment with 0.5 ml RPMI 1640 supplemented with 40 mg/ml BSA and incubated for 2 hour at 37° C. Total protein concentration in the upper compartment was determined using a Bio-Rad protein assay (Bio-Rad Laboratories, Hercules, Calif.).

AMPK = AMPK activity (p-Thr172 AMPKα) in podocytes by immunoblotting and confocal microscopy
Source text: Western immunoblotting: Total protein from mouse podocytes was solubilized in lysis buffer containing 1% Triton X-100, Protease Inhibitor Cocktail (Mini Complete Protease Inhibitor Cocktail, Roche, Germany), PMSF, and phosphatase inhibitors. Protein was resolved on SDS-PAGE and transferred to a nitrocellulose membrane (Bio-Rad, Hercules, Calif.) as previously described (29). The membrane was immunoblotted initially with rabbit anti mouse phospho-AMPKα (p-AMPKα) monoclonal antibody or with rabbit anti AMPKα monoclonal (Cell Signaling Technology, New England Bio Labs, Boston, Mass.). Subsequently membranes were blotted with a secondary donkey anti-rabbit antibody (Amersham Biosciences, Piscataway, N.J.) conjugated to horseradish peroxidase (HRP). […]
(§1) Immunohistochemistry: Immunocytochemistry was performed as described previously (30). […] Fluorescence pictures were obtained using confocal laser fluorescence microscope (LSM-510, Carl Zeiss, Jena, Germany). […] Quantitation of p-AMPKα positive cells was performed on 50 glomeruli from 4 mice in each group.
as §1, with “p-AMPKa” for “p-AMPKα”, “group. […]” for “group.”

Nox4 = Nox4 protein in cultured podocytes (immunoblot, confocal); conditions: adiponectin for 16 h

B1: adiponectin: 30 kDa adipocyte-secreted protein; in the first series of tests the recombinant globular domain was used, later gAd or fAd (protein, UniProt Q15848 19-244, looked up)
Adiponectin: ETTTQGPGVLLPLPKGACTGWMAGIPGHPGHNGAPGRDGRDGTPGEKGEKGDPGLIGPKGDIGETGVPGAEGPRGFPGIQGRKGEPGEGAYVYRSAFSVGLETYVTIPNMPIRFTKIFYNQQNHYDGSTGKFHCNIPGLYYFAYHITVYMKDVKVSLFKKDKAMLFTYDQYQENNVDQASGSVLLHLEVGDQVWLQVYGEGERNGLYADNDNDSTFTGFLLYHDTN
Podocyte monolayer
  Permeability of albumin across a podocyte monolayer: reduced
AMPK; globular adiponectin 3 μg/ml, 24 h, serum-free, normal glucose
  AMPK activity (AMPKα phosphorylation on Thr-172) in podocytes: increased
AMPK; high glucose exposure plus adiponectin
  Effect on the high glucose (HG) decrease of AMPK activity in podocytes: prevented; also recorded: blocked
Nox4
  Podocyte Nox4 protein: sufficient to suppress podocyte Nox4
